# Results: patent publication US8722850B2, “Self-assembling peptides and their use in the formation of hydrogels” (Universita' Degli Studi di Milano Bicocca, priority 2010, dated 2014)
# “Also recorded” adds a separate entry of the source. The star is where a group is joined. Biotin = O=C1N[C@H]2[C@H](CS[C@H]2CCCCC(=O)*)N1
# Key:
# [1] = Macro-scale scaffold formation upon exposure to PBS / neutral pH buffer; type: physicochemical; conditions: upon exposure to PBS (1×) / neutral pH buffer
# Excerpt: The tested peptides solutions appearance ranged from peptides giving clear liquid is solutions (e.g. 4, B15, B19, B25, B28, 30) to samples which become opaque in 1 to 7 days after dissolution (e.g. B3, B17, B22, B24, B27, 31) as shown in FIG. 2a (I). Most of the liquid solutions increased in viscosity over the first week after dissolution, however after ten days in water no appreciable changes happened at the macroscale.
# (§1) Nonetheless, keeping constant the observation time, the storage moduli of peptide solutions previously dissolved (the day before) at 3% w/v were measured. Measurements were obtained of these peptide solutions, further diluted to 1% w/v at the same day of the experiment (unless otherwise specified), and, after addition of PBS, of the formed scaffolds.
# [2] = system: human Neural Stem Cells (hNSCs); assay: Phase contrast imaging of hNSC morphology on scaffolds; type: cell-based; conditions: 7 days in vitro
# Description: In vitro tests were performed following a previously adopted methodology (5). Briefly, cells (at a concentration of 6×10^4 cells/cm^2) were seeded on the top-surface of each assembled scaffold previously assembled into 96 multiwells. Initially, cells were cultured with basal medium supplemented with βFGF (10 ng/ml), added to enhance neuronal progeny differentiation. At 3 days in vitro (DIV), βFGF medium was replaced with Leukemia Inhibitory Factor (LIF, Chemicon) (20 ng/ml) and Brain Derived Neurotrophic Factor (BDNF, Peprotech) (20 ng/ml). Fresh medium was added every three days. Positive and negative controls consisted of CULTREX-BME® substrate (R&D systems) (1:100 dilution in basal medium) and untreated bottom well surfaces respectively.
# To assess the potential of the proposed SAPs for cell cultures and, more generally, for regenerative medicine, a two-dimensional cell culture protocol already developed for RADA16-I-like peptides was adapted (5). Briefly, human Neural Stem Cells (hNSCs), mechanically dissociated 1 day before plating, were seeded and cultured for one week in vitro over self-assembled scaffolds of B3, 4, B15, B17, B19, B22, B24, B25, B27, B28, 30, 31 and over non-coated tissue culture plastic wells (negative control).
# [3] = Self-healing tests of assembled scaffolds after mechanical rupture; type: physicochemical; conditions: recovery of scaffold stiffness after mechanical rupture
# Description: (§2) Rheological properties were determined for the peptides of the invention, using a controlled stress TA Instruments AR-2000ex rheometer (TAInstruments). A cone-and-plate geometry (acrylic cone diameter, 20 mm; angle, 1°; truncation gap 34 μm) was used. All measurements were obtained at a constant monitored temperature of 25° C. Preliminary strain sweeps were performed for each sample to define the linear viscoelastic region, thus ensuring that moduli were independent of strain. Time sweeps, after addition of PBS (1×) were recorded at constant angular frequency (ω=1 Hz). Frequency sweeps, both for peptide water solutions and for self-assembled scaffolds, were performed with the instrument in oscillatory mode at controlled strain of 1%. Final: onset point of rupture was calculated by linear interpolation and subsequent determination of the intersection of the G′ modes in the linear region and at material rupture respectively. G′ values were averaged in the 1-100 Hz region and between n=3 independent replicates. During self-healing tests the self-assembled scaffold was torn by applying a strain sweep (0.01%-1000% strain range) at 1 Hz oscillatory frequency. G′ values were is recorded in frequency sweep mode (at 1% strain) or, in time sweep mode (at 1 Hz and at 1% strain), before and after the strain sweep step, subsequent observations were performed every half hour or, in case of time sweep test, every 30 seconds. In all of the SAPs the difference between the storage moduli measured before and after PBS addition spanned from two to four orders of magnitude, proving the dramatic biomechanical changes taking place during scaffold gelation. Peptide B3 (1%) yielded a solid stiff scaffold (G′=2917 Pa), supporting the idea that ionic charges may screen the electrostatic repulsions given by positively charged lysine residues and speed up the spontaneous ongoing self-assembling process, on its turn giving an already viscous (G′=67 Pa) and opaque solution at day 1. Among the peptides giving soft scaffold (100 Pa-1000 Pa range) peptides 4, B19, B25, B28 and 30 were included. On the opposite side, SAPs yielding solid stiff scaffolds are B15, B22, B24, B27 and 31 (5000 Pa-9000 Pa range).
# Solid scaffolds were obtained via addition of PBS (1×) in a cone-and-plate rheometer; we measured the storage modulus, the samples were subjected to a strain sweep (0.01% to 1000%) until and far beyond rupture occurred (i.e. is monitoring the sudden drop of G′ value). Samples were then left in place (keeping them hydrated with PBS) and their G′ were measured every 30 minutes via frequency sweep tests in the range of 0.1 Hz to 60 Hz. As a negative control KLD-12, a well-known SAP, was tested (4, 6). […] In FIG. 6b peptide B25 (3% w/v concentration) was assessed for self-healing in a time sweep mode, every 30 seconds, at 1 Hz and at 1% strain. Values of G′ recovered after 100 minutes (1000 Pa) and steadily plateaued over time. For peptides B3, B22, B25 and B27 full recovery was obtained at different time intervals after rupture, ranging from 60′ to 240′. Similar results were confirmed by multiple independent experiments, but at different time ranges, for all of the self-assembling peptides except for B19 and B28.
# Samples were checked for rupture by tilting. After a maximum of four hours all of the samples returned to their solidified gel appearance. This healing could be repeated at will.
# [4] = Rheological tests (storage modulus G′, cone-and-plate rheometer); type: physicochemical
# Description: as §2
# The mechanical properties of the synthesized peptides were tested with a cone-and-plate rheometer. Firstly, the G′ dependence of peptide water solutions on concentration increments, and consequently aggregation kinetics, was assessed as shown in FIG. 2b.
# as §1
Substance,solid scaffold / hydrogel formation [1],further results
"Biot-PFSSTKT-CONH2 (Biotin-PFSSTKT-NH2; SMILES C[C@@H](O)[C@H](NC(=O)[C@H](CCCCN)NC(=O)[C@@H](NC(=O)[C@H](CO)NC(=O)[C@H](CO)NC(=O)[C@H](Cc1ccccc1)NC(=O)[C@@H]1CCCN1C(=O)CCCC[C@@H]1SC[C@@H]2NC(=O)N[C@@H]21)[C@@H](C)O)C(N)=O) [peptide B7, non-assembling control peptide]",not give a solid scaffold,
Ac-WGGGAFASTKT-CONH2 (Ac-WGGGAFASTKT-NH2) [compound 30],yielded solid scaffolds,cell morphology / degree of spreading [2]: single spherical cells
Biot-GGGKFSSTPT-CONH2 (Biotin-GGGKFSSTPT-NH2; SMILES C[C@@H](O)[C@H](NC(=O)[C@@H]1CCCN1C(=O)[C@@H](NC(=O)[C@H](CO)NC(=O)[C@H](CO)NC(=O)[C@H](Cc1ccccc1)NC(=O)[C@H](CCCCN)NC(=O)CNC(=O)CNC(=O)CNC(=O)CCCC[C@@H]1SC[C@@H]2NC(=O)N[C@@H]21)[C@@H](C)O)C(N)=O) [B64],yielded solid scaffolds; also recorded: self-assembled giving a hydrogel upon exposure to PBS,
Biotin-GGGAFASTKA-NH2 [B33],yielded solid scaffolds,
Ac-F-GGG-AFSSTKT-CONH2 (Ac-FGGGAFSSTKT-NH2) [compound 61],yielded solid scaffolds,
Ac-F-GGG-AFASTKT-GIKVAV-CONH2 (Ac-FGGGAFASTKTGIKVAV-NH2) [compound 59],yielded solid scaffolds,
Ac-FGGG-PFSSTKT-CONH2 (Ac-FGGGPFSSTKT-NH2) [compound 37],yielded solid scaffolds,
Biot-GGGPFSSKTT-CONH2 (Biotin-GGGPFSSKTT-NH2; SMILES C[C@@H](O)[C@H](NC(=O)[C@@H](NC(=O)[C@H](CCCCN)NC(=O)[C@H](CO)NC(=O)[C@H](CO)NC(=O)[C@H](Cc1ccccc1)NC(=O)[C@@H]1CCCN1C(=O)CNC(=O)CNC(=O)CNC(=O)CCCC[C@@H]1SC[C@@H]2NC(=O)N[C@@H]21)[C@@H](C)O)C(N)=O) [B66],self-assembled giving a hydrogel upon exposure to PBS,
Biot-GGGPKSSTFT-CONH2 (Biotin-GGGPKSSTFT-NH2; SMILES C[C@@H](O)[C@H](NC(=O)[C@H](Cc1ccccc1)NC(=O)[C@@H](NC(=O)[C@H](CO)NC(=O)[C@H](CO)NC(=O)[C@H](CCCCN)NC(=O)[C@@H]1CCCN1C(=O)CNC(=O)CNC(=O)CNC(=O)CCCC[C@@H]1SC[C@@H]2NC(=O)N[C@@H]21)[C@@H](C)O)C(N)=O) [B65],yielded solid scaffolds; also recorded: self-assembled giving a hydrogel upon exposure to PBS,
Biot-GGGPFSETKT-CONH2 (Biotin-GGGPFSETKT-NH2; SMILES C[C@@H](O)[C@H](NC(=O)[C@H](CCCCN)NC(=O)[C@@H](NC(=O)[C@H](CCC(=O)O)NC(=O)[C@H](CO)NC(=O)[C@H](Cc1ccccc1)NC(=O)[C@@H]1CCCN1C(=O)CNC(=O)CNC(=O)CNC(=O)CCCC[C@@H]1SC[C@@H]2NC(=O)N[C@@H]21)[C@@H](C)O)C(N)=O) [peptide B17],yielded solid scaffolds,self-healing property [3]: self-healing property has been seen; cell morphology / degree of spreading [2]: proliferated cell clusters
Biotin-GGGAWASTKT-NH2 [B32],yielded solid scaffolds,
Biotin-GGGGG-AFASTKT-CONH2 [B51],yielded solid scaffolds,
Biot-GGGPFSSTKT-CONH2 (Biotin-GGGPFSSTKT-NH2; SMILES C[C@@H](O)[C@H](NC(=O)[C@H](CCCCN)NC(=O)[C@@H](NC(=O)[C@H](CO)NC(=O)[C@H](CO)NC(=O)[C@H](Cc1ccccc1)NC(=O)[C@@H]1CCCN1C(=O)CNC(=O)CNC(=O)CNC(=O)CCCC[C@@H]1SC[C@@H]2NC(=O)N[C@@H]21)[C@@H](C)O)C(N)=O) [peptide B3],shifting to solid scaffold when exposed to neutral pH buffer; also recorded: yielded solid scaffolds,"storage modulus G′ of assembled scaffold (G′ post-assembling) ([4]; after PBS (1×) addition, averaged in 1-100 Hz range, 25° C., B3 at 1%): 2917 Pa; time for G′ of peptide solution to reach a plateau ([4]; dissolved at 3% concentration in water): 2 days; storage modulus G′ of peptide solution (pre-assembling) ([4]; water solution at day 1, 1%, before PBS): 67 Pa; self-healing property [3]: self-healing property has been seen; cell morphology / degree of spreading [2]: branched cells"
Biot-GGGPWSSTKT-CONH2 (Biotin-GGGPWSSTKT-NH2; SMILES C[C@@H](O)[C@H](NC(=O)[C@H](CCCCN)NC(=O)[C@@H](NC(=O)[C@H](CO)NC(=O)[C@H](CO)NC(=O)[C@H](Cc1c[nH]c2ccccc12)NC(=O)[C@@H]1CCCN1C(=O)CNC(=O)CNC(=O)CNC(=O)CCCC[C@@H]1SC[C@@H]2NC(=O)N[C@@H]21)[C@@H](C)O)C(N)=O) [B27],yielded solid scaffolds,self-healing property [3]: self-healing property has been seen
Ac-Y-GGG-PFSSTKT-CONH2 (Ac-YGGGPFSSTKT-NH2) [peptide 60],yielded solid scaffolds,
Biotin-GGGPFSSTKTP-NH2 [B34],yielded solid scaffolds,
"Ac-GGGPFSSTKT-CONH2 (Ac-GGGPFSSTKT-NH2) [peptide 2, biotin-deleted version of B3 that formed no scaffold]",prevented any scaffold formation,
Biot-GGGPFSSTTK-CONH2 (Biotin-GGGPFSSTTK-NH2; SMILES C[C@@H](O)[C@H](NC(=O)[C@H](CO)NC(=O)[C@H](CO)NC(=O)[C@H](Cc1ccccc1)NC(=O)[C@@H]1CCCN1C(=O)CNC(=O)CNC(=O)CNC(=O)CCCC[C@@H]1SC[C@@H]2NC(=O)N[C@@H]21)C(=O)N[C@H](C(=O)N[C@@H](CCCCN)C(N)=O)[C@@H](C)O) [B67],self-assembled giving a hydrogel upon exposure to PBS,
Biot-GGGGGPFSSTKT-CONH2 (Biotin-GGGGGPFSSTKT-NH2; SMILES C[C@@H](O)[C@H](NC(=O)[C@H](CCCCN)NC(=O)[C@@H](NC(=O)[C@H](CO)NC(=O)[C@H](CO)NC(=O)[C@H](Cc1ccccc1)NC(=O)[C@@H]1CCCN1C(=O)CNC(=O)CNC(=O)CNC(=O)CNC(=O)CNC(=O)CCCC[C@@H]1SC[C@@H]2NC(=O)N[C@@H]21)[C@@H](C)O)C(N)=O) [peptide B25],yielded solid scaffolds,self-healing property [3]: self-healing property has been seen
Biotin-G-AFASTKT-CONH2 [B50],yielded solid scaffolds,
